Measurements published in the nanobody polyreactivity screen of Harvey et al. (2022).

Assay: yeast display, Sf9 membrane polyspecificity reagent, FACS + sequencing; frameworks hold sequencing errors
In short: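 Using colony PCR, genes from sorted yeast display clones were amplified, then sequenced on MiSeq at 2 × 250 and filtered by CDR length. The clones had been stained with 10% biotinylated, detergent-solubilized Sf9 membrane reagent for 1 hour at 4 °C and sorted by FACS into low and high (top ~1%) gates on anti-HA and streptavidin fluorescence. Polyreactivity labels come from the gate of origin.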

| Sequence | polyreactivity (PSR sort gate) |
| --- | --- |
| QFQLVESGGGLVQAGGSVRLSCAASGSTFYLYAMGWYRQAPGKERELVAAITYGGGSTYYADSVKGRFTISRDNAKNTVYLQMNSLKPEDTAVYYCAARWLYWPRYNSLVYTHRDSWGQGTQVTVSS | low polyreactivity |
| QFQLVESGGGLVQAGSRLRLICAASGSTFKYYTMGWYRQAPGKERELVATIRGSGTTYADSVKGRFTISRDNAKNTVYLQMNSLKPEDTAVYYCARLPPADMDYWGQATQVTVSS | low polyreactivity |
| QFQLVESGGGLVQAGVSLRLICAASVSTFGYNAMGWYRQAPGKERELVPANNGRGGGTYYADSVKGRFTISRDNAKNTVYLQINSLKPEDTAVYYCAKLRRAGTGRGSHVYRQSDYWGQGTQVTVSS | high polyreactivity |
| QFQLVESGGGLVQAGVSLRLSCAASGSTFYYGMVCSRHAPRKERELVAAISSRGGTTYYADSVKGRFTISRDNAKNTVYLQMNSLKPEDTAVYYCAAPVPYYVPSRNEGDYWGQGTQVTVSS | low polyreactivity |
| QFQLVESGGGLVQARGSLRLSCAPSGSTFGYYTMGWYRQAPGKERELVAAISWSGGSTYYADSVKGRFTISRDNAKNTVYLQMNSLKPEDTAVYYCAALGYTYKYYSYYWGQGTQVTVSS | high polyreactivity |
| QFQLVESGGGLVQEGGSLRISCAASGSIFNEYAMGWYRQAPGKERELVAAISTSGDITYYADSVKGRFTISLDTAKNTVYLQMNSLKPEDTAVYYCAAKYSLLRQYNRLDYWGQGTQVTVSS | low polyreactivity |
| QFQLVESGGVLVQAGGSLRLSCAASGSTFNHYAMGWYRQARGKERELVADITKSGASTYADSVKGRFTISRDNAKNSVYLQMNSLKPEDTAVYYCAAGRRNYGTKGRGDYWGQGTQVTVSS | low polyreactivity |
| QFQLVESGRGLVQAGGSLRLSCAASVRIFLWYAMGWYRQAPGKERELVAVIRGRGDSTSYADSVKGRFTISRDNAKNTVYLQMNSLKPEDTAVYYCADVGRYDYNYWGQGTQVTVSS | low polyreactivity |
| QFQLVESGVGLVQAGGSLRLSCAASGRIFTNYAMGWYRQAPGKERELVASINYSGATRNYADSVKGRFTISRDNAKNTVYLQMNSLKPEDTAVYYCNADIYPDLYGSTNYDFNYWGQGTQVTVSS | low polyreactivity |
| QFQLVESVGGLVQAGGSLRLSCAASGFIFGGYAMGWYIKAPGKERELVAAISSSGGSTYYADSVKGRFTISRDNAKNTVYLQMNSLKPEDTAVYYCAKVGWSRRYYYWGQGTQVTVSS | high polyreactivity |
| QFQLVESVGGLVQAGGSLRLSCAATGRTSYVYLMVSYRAATGTEMELVAAITGSGGSTYYADSVKGRFTISRDNEKNNVYLQLNSLKPEDTAVYYCAKAYYSYEVYLGLSYVRRYVYWGQGTQVTVSS | low polyreactivity |
| QFQLVEYGGGLFQAGGSLRLSCDASGSIFPYNDLGWYRQAPGKERELVARITNGGSTNYADSVKGRFTISRDNAKNTFYLQMNSLKPEDTAGYYCNKDGTQEFAPDGHEYWGQGTQVTVSS | low polyreactivity |
| QGHLVESGGGLVQAGGSLRLSCAASGFIFDYYAMGWYRQAPRKERELVAAITRDGGGTYYADSVTGRFTISRDNAKNTVYLQMNSLKPEDTAVYYCAARRAVRLYYWGQGTQVTVSS | high polyreactivity |
| QGQHVESGGGLVQAGGRLRLSCAASGSILSGYEMGRSREAPGKERELVASITRGGSTYYADSVKGRFTISRDNANNSVYFQMNSLNPEDPAVYDCARYGSKNRRLGMDYWGQGTQVTVSS | low polyreactivity |
| QGQHVESGGGLVQAGGSLRLSCAASGRIFVPYAMGWYRQAPGKERELVAAITWRGGSPYYADSVKGRFTLSRDNAKNTVYLQMNSLKPVDTAVYYCNAAEASPWFWFSHLQVGMDYWGQGTQVTVSW | low polyreactivity |
| QGQLEESGGGLVQAGGSLRLSCAASGSIFGENAMGWYRQAPGKDRELVAAISSAGSTKYADSVKGRFTISRDNAKNSVYFQMNSLKPEDTAVYYCAAGYYRTSYPYSYYYWGQGTQVTVSS | low polyreactivity |
| QGQLEESGGGLVQAGGSLRLSCAASGSLFPSYVMGWYRQAPGKERELVAAIRTSGDRTYYADSVKGRFTNSRDNAKNTVYLQMNCLKPEDTAVYYCAAPYGHKSPRMYYWGQGTQVTVSS | high polyreactivity |
| QGQLEESGGGLVQAGGSLRLSCAASGSTFTYYAMGWYRQATGKERELVAAISWSGTRTYYADSVKGRFTISRDNAKNTDYLQTNSLKPEDTAVYYCAADWRRSGVYTMGYWGQGTQVTVSS | high polyreactivity |
| QGQLGESGGGLVQAGGSLRLSSPASGIIFWDYAMAWSRQSPGNEREFVAAINTSGGTTTYADSVKGRFTISRDNAKNTVYLQMNSLKPEDTAVYYCAADPWGYYSYAYYYWGQGTQVTVSS | low polyreactivity |
| QGQLVDSGGGLVQAGGSLRLSCAASGFTVTRYAMGWYRTATGKERELVAAISWNSGSTYYADSVKGRFTISRDNAKNTVYLQMNSLKPEDTAVYYCAARDDQGYCYWGQGTQVTVSS | high polyreactivity |
| QGQLVESCGGLVQAGGSLRFICAASGSNFFSYAMGCYRQAPWKERELVASISRRGGTTYYADSVKGRFTISRDNAKNTVYLHMNSLKPDDTAVYYCAAKLLYGGRYGYWGQGTQVTVSS | high polyreactivity |
| QGQLVESCGGLVQAGGSLRLSCAASGSTFAAYTMGWYRQAPGQERELVAAIRFDGGRTYYADSVKGRFTSSRDNAKNTVYLPMNSLKPEDTAVYYCRAWQSYSYDYWGQGTQVTVSS | high polyreactivity |

| Sequence | polyreactivity (PSR sort gate) |
| --- | --- |
| QGQLVESGGALVQAGGSLRLSCAPSGRTFHGYAMGGYRQAPGKERELVARINWSDGRTYYADSVKGRFTISRDNAKNTVYLQMNSLKPEDTAVYYCAADKTVSYGPAWYYYWGQGTQVTVSS | low polyreactivity |
| QGQLVESGGGFVQAGGSLRLSCAASGRTIEGNAMGWYRQPPWKERELVAGIRQSGDSTYYADSVKGRFTISRDNAKNTVYLQMNSLKAEETAVFYSNSRAFPFGTGVQGFGFGYWGQGTQVTVSS | low polyreactivity |
| QGQLVESGGGIVQAGGSLRLSCSASGLTYGTNAKGLYRQAPRQERELVAAISRSGGTTYYADSVKWRFTISRDNAKNTVDLQMNSLKPEDTAVYYCATRPYSPWRHYFWGQGTQVTVSS | high polyreactivity |
| QGQLVESGGGLFQAGGSLRLSCDDSGRTFSGYAMGWYRQAPGKEREFVAAITWSGGSTYYADSVKGRFSISRDNAKNTVYLQMNSLKPEDTAVYYCAARDYTRYGYGYWGQGTQVTVSS | high polyreactivity |
| QGQLVESGGGLGQAGGSLRLSSAASGRTFGRYAMGWYRQAPGNERELVAAISYSTDSTYYADSVKGRFTISRDNAKNTVYLQMNSLKPEDTAVYYCATDSVNVGSYVGDKHDYWGQGSQVTVSS | low polyreactivity |
| QGQLVESGGGLLQAGGSLRLISAASGSTFPIYAMGWYRHAPRKERELVAAITWRGGSRKYYADSVKGRYTISRDNAKNTVYLQMNCLKPEDTAVYYCAAEYKWPLYGYWGQGTQVTVSS | low polyreactivity |
| QGQLVESGGGLVQAGCSLRLSCAASGSTFSYYAMGWYRQAPGKETELVAAIRKSGGSTYYADSVKGRFTISRDNAKNTVYLQMNSLKPEDTAVNSCVAVFSYYGWYSRYDYWGQGTQVTVSS | low polyreactivity |
| QGQLVESGGGLVQAGGILRLRCAASGRMFQQYAMGWYRQAPGKERELVAVITYRAGRTHYADSVKGRFTISRDIAKNTVYLQMYRVKPDDTAVYYCAAGRYYAVWHSISGFDSWGQGTQETVSS | low polyreactivity |
| QGQLVESGGGLVQAGGRLRLSCAASGFIFCIYAMAWYRTATGKQREFVAVSTYRGDTKYYADSVKGRFTISRDNAKNTVYLQMNSLKAEDTAVYSCAAYTVQKYGYWGQGTQVTVSS | low polyreactivity |
| QGQLVESGGGLVQAGGSLRLICAASGFIFQANALGWYRQAPGQERELVAAITSSVGRTYYADSVKGRFTISRDNAKNTVYLQMNSLKPEYTEVYYCNAGGHLEMNYWGQGTQVTVSS | low polyreactivity |
| QGQLVESGGGLVQAGGSLRLSCAACGSIFTYYTMGWYRQAPGKERELVAAIRWSAGRTYYADSVKGRFTISRDNAKNTVYLQMNSMKPEDTAVYYCAAAERLRHGLKFDYWGQGTQVTLSS | high polyreactivity |
| QGQLVESGGGLVQAGGSLRLSCAASGFIFDNNAMGWYRQAPGKERELVAAISFSAGSTYYADSVKGRFTISRDNAKNTVYLQMNSLNPEDTAVYYCNADDWWGGYDYWGQGTQVTVSS | low polyreactivity |
| QGQLVESGGGLVQAGGSLRLSCAASGFIFVPYAMGWYRQAPGKEREFVAAITASGGNTYYADSVKGRFTISRDNAKNTVYLQMNSLKPEYTAVYYCAAEISGSLESLDYWGQGTQVTVSS | low polyreactivity |
| QGQLVESGGGLVQAGGSLRLSCAASGFSFLRYAMGWYRQAPGKERELVAAISTSGGSTSYADSVKGRFTISRDNAKNTVSLQKNSLKQEDTAVYYCNAVLYKVSISEYDYWGQGTQVTVSS | high polyreactivity |
| QGQLVESGGGLVQAGGSLRLSCAASGFTFVGNAMGWYRQAPGKERELVATITSGGNTKYADSVKGRFTISRDNAKYTVYLQKNSLKPEDTAVYYCAAAKYNYRRFNYWGQGTQVTVSS | low polyreactivity |
| QGQLVESGGGLVQAGGSLRLSCAASGFTISSYAMGWYRQATGKEREMVAAISSSGSRTSYADSVKVRFTISRDIAKNSVYFQMNSLKPEDTAVYYCAARPGDGGYYYWGQGTQVTVSS | high polyreactivity |
| QGQLVESGGGLVQAGGSLRLSCAASGFTSSRNAMGWYIQEAGKERELVATISSGGDTYYADSVKGRFTISRDNAKNTVYLQMNSLKPEDTAVYYCNKDPLYAWGYDYWGQGTQVTVSS | low polyreactivity |
| QGQLVESGGGLVQAGGSLRLSCAASGIIFEYYDMGWYRQAPGKERELVAAIDSGGSTYYADSVKGRFTISRDNAKNTVYLQMNSLKPEDTAVYYCAASRPPNTSNTGYGSWGQGTQVTVSS | low polyreactivity |
| QGQLVESGGGLVQAGGSLRLSCAASGRIFGHYAMGWYRQAPGKERELVAAIRWRGGSTYYADSVKGRFTISRDNAKNTVYLQMNSLKPEDTAVYYCARTNNGRFRIVDTRYDYWGQGNQVTVSS | low polyreactivity |
| QGQLVESGGGLVQAGGSLRLSCAASGRIFPGNVMGWYRPAPGKERELVAAISSSGGSTYYADSVKGRFTISRDNAKNTVYLQMNSLKPEDTAVYYCAADSSDWPYDYWGQGTQVTVSS | low polyreactivity |
| QGQLVESGGGLVQAGGSLRLSCAASGRIFRGYAMGWYRQGPGNEREWVAAFSRRGGSTYYADSVKGRFTISRDNAKNTVYLQMNSLKPVDTAVYYCNADGVHYVAYAGGYWGQGTQVTVSS | high polyreactivity |
